Laboratory results as given in patent publication US8209131.

target: IL-4 receptor alpha (IL-4Ra) (UniProt P24394); experiment: cell-based or functional assay
Sequence (P24394 26-825 limits assumed): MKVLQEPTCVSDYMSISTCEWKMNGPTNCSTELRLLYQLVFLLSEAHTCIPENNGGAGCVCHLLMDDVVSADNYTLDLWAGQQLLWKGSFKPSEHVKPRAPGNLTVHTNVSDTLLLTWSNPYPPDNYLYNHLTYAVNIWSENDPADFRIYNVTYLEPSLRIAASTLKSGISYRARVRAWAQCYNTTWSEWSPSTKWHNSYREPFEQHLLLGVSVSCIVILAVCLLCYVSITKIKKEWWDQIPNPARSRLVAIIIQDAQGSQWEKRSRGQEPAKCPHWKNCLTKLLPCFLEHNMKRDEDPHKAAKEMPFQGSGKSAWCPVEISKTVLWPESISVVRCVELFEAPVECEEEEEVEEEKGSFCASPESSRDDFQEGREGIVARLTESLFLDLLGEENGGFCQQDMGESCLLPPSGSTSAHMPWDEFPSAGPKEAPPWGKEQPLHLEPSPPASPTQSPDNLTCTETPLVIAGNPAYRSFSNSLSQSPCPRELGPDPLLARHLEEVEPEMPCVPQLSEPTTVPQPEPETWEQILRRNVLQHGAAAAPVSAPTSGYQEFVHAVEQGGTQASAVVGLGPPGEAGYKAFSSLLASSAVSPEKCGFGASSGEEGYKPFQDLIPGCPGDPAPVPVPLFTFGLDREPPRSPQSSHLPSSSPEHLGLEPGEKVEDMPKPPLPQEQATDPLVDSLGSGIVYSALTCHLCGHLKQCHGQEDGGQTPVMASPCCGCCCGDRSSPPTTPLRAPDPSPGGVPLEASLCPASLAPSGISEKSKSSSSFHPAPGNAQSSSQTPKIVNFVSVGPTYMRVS

Row | Substance | Conc needed for 50% growth (TF1.8 Bioassay), average [ng/mL]
1 | IL-4 double mutant K77A/K84A (from UniProt P05112 25-153) (ligand) | 1.69
2 | IL-4 double mutant K77A/R81A (from UniProt P05112 25-153) (ligand) | 1.65
3 | IL-4 mutant K42A (from UniProt P05112 25-153) (ligand) | 0.67
4 | IL-4 mutant R81A (from UniProt P05112 25-153) (ligand) | 4.85
5 | IL-4 mutant K12A (from UniProt P05112 25-153) (ligand) | 0.6
6 | IL-4 mutant K84A (from UniProt P05112 25-153) (ligand) | 2.95
7 | IL-4 double mutant K77A/R53A (from UniProt P05112 25-153) (ligand) | 11.3
8 | IL-4 mutant E9A (from UniProt P05112 25-153) (ligand) | 76.1
9 | IL-4 mutant K21A (from UniProt P05112 25-153) (ligand) | 1.36
10 | IL-4 mutant R88V (from UniProt P05112 25-153) (ligand) | 415
11 | IL-4 mutant K77A (from UniProt P05112 25-153) (ligand) | 1.55
12 | IL-4 mutant R85A (from UniProt P05112 25-153) (ligand) | 0.71
13 | IL-4 mutant R53A (from UniProt P05112 25-153) (ligand) | 9.39
14 | IL-4 mutant R75A (from UniProt P05112 25-153) (ligand) | 0.63
